Consider 1 substance from patent publication US20130184442A1.

Common to all, as to assay: SPR (Biacore 2000), antibody immobilized on CM5 chip, Langmuir 1:1 model
In general terms: In SPR one partner is held on a chip, and binding of the other changes the refractive index at the surface.

Assay [1] addresses anti FITC-BSA mouse IgG2a (monoclonal, BioInvent International AB).
In assay [2] the target is polyclonal rabbit IgG.
Assay [3] addresses anti FITC-BSA human IgG1 (monoclonal, BioInvent International AB).

As to “Zwt (recombinantly produced parental Z domain) (designed binder)”, the values for the Kd in assay [1], in assay [2] and in assay [3] were 550 nM, 60 nM and 20 nM, respectively.

What is called Kd is a measure of binding affinity in units of concentration. A high value points to a looser complex.
